Molecular target: T1, complement factor H (human, UniProt P08603 19-1231, 125I-labelled (Iodobeads) in the blot and bacterial binding assays)
T1 construct: also called fH; FH
Test: SPR (Biacore), GST:Hic39-261 captured on anti-GST antibody chip, fH as analyte, Langmuir 1:1 model, mean ± SD of three experiments

T1 sequence (P08603 19-1231 limits assumed): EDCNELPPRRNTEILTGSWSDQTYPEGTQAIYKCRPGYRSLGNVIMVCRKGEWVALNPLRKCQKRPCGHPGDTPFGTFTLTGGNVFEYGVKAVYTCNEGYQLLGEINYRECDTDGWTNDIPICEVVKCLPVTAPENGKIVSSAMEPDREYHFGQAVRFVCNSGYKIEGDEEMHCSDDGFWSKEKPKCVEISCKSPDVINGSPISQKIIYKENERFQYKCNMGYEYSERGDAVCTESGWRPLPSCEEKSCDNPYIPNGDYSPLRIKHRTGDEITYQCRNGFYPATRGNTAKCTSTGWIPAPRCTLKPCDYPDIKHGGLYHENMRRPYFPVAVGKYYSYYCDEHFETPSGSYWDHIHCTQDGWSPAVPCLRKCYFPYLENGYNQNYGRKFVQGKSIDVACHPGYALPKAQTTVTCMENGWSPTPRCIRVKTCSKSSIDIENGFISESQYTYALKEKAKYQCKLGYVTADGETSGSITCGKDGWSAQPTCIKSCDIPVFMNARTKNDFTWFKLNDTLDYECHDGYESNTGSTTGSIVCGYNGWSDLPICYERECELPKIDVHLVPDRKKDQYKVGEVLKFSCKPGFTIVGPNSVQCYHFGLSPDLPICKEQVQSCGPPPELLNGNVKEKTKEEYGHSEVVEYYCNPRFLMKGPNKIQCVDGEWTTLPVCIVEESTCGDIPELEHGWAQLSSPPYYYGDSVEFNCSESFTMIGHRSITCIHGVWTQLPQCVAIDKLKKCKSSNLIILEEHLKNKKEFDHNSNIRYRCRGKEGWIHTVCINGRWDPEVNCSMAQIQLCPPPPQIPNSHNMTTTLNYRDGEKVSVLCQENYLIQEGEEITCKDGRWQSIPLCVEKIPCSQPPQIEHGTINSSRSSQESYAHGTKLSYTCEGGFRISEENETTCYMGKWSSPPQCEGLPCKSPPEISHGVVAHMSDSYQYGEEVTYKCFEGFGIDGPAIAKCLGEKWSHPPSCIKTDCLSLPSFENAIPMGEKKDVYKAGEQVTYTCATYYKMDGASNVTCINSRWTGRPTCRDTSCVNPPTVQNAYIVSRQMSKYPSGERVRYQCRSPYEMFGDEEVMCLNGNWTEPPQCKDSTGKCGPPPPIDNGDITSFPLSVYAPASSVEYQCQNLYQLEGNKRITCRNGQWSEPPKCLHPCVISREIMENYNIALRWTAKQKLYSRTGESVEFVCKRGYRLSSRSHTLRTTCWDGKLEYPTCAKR

B1: GST:Hic^39-261 fusion protein (other)
chain: EKEVTTQVATSSNKANKSQTEHMKAAKQVDEYIEKMLSEIQLDRRKHTQNVGLLTKLGAIKTEYLRGLSVSKEKSTAELPSEIKEKLTAAFEQFKKDTLKSGKKVAEAQKKAKDQKEAKQEIEALIVKHKGREIDLDRKKAKAAVTEHLKKLLNDIEKNLKKEQHTHTVELIKNLKDIEKTYLHKLDESTQKAQLQKLIAESQSKLDEAFSKFKNGLSSSSNS
notes: main band 54 kDa, partly degraded; Vector-derived residues after the EcoRI site, if any, are not described; also called fusion between GST and the NH2-terminal Hic region; not shown: glutathione S-transferase (GST) encoded by vector pGEX-5X-3 (Pharmacia Biotech); vector-encoded residues between GST and the BamHI cloning site of pGEX-5X-3
Q: With B1 as the binder, how does the Ka read?
A: 5e+07 M⁻¹

Q: And the Kd?
A: 23 nM

Q: What about the koff of the same binder?
A: 0.00061 s⁻¹

Q: And the kon?
A: 28000 M⁻¹ s⁻¹

From patent US20040091495A1 (published 2004)
